Sequences and labels used below:
B1: SD1083 (VHH)
VHH: EVQLVESGGGLVQPGGSLRLSCAATGFTLENKAIGWFRQTPGSEREGVLCISKSGSWTYYTDSMRGRFTISRDNAENTVYLQMDSLKPEDTAVYYCATTTAGGGLCWDGTTFSRLASSWGQGTQVTVSS
B2: SD1084 (VHH)
VHH: EVQLVESGGGLVQPGGSLKLSCAASGFTFSTSWMYWLRQAPGKGLEWVSVINTDGGTYYADSVKDRFTISRDNAKDTLYLQMSSLKSEDTAVYYCAKDWGGPEPTRGQGTQVTVSS
B3: SD3085 (VHH)
VHH: B2 VHH with K19R, D65G, A74S, D76N, S83N, K86R, S87A, Q111L
B4: SD3086 (VHH)
VHH: B2 VHH with K19R, L37V, D65G, A74S, D76N, S83N, K86R, S87A, Q111L
B5: SD3004 (VHH)
VHH: B2 VHH with K19R, D65G, A74S, S83N, K86R, S87A
B6: SD3002 (VHH)
VHH: B2 VHH with K19R, D65G, A74S, D76N, S83N, K86R, S87A
B7: SD3001 (VHH)
VHH: B2 VHH with K19R, Y35S, D65G, A74S, D76N, S83N, K86R, S87A
B8: SD3003 (VHH)
VHH: B2 VHH with K19R, Y35S, D65G, A74S, S83N, K86R, S87A
B9: SD3049 (VHH)
VHH: EVQLVESGGGLVQPGGSLRLSCAASGLSLDTYAMSWFRQAPGKEREGVSCISSGHGMTYYADSVKGRFTISRDNSKNTLYLQMNSLQPEDTARYYCATESRYYCSDNWPAPQRYIYWGQGTQVTVSS
B10: SD3007 (VHH)
VHH: EVQLLESGGGLVQPGGSLRLSCAASGFTLENKAIGWFRQAPGKEREGVSCISKSGSWTYYADSVKGRFTISRDNSKNTVYLQMNSLRAEDTAVYYCATTTAGGGLCWDGTTFSRLASSWGQGTQVTVSS
B11: SD3009 (VHH)
VHH: B10 VHH with I34M, G35S, S49L, V79L
B12: SD3008 (VHH)
VHH: B10 VHH with A88P
B13: SD3012 (VHH)
VHH: B10 VHH with S49L, A88P
B14: SD3087 (VHH)
VHH: B10 VHH with S49L, A88P, Q124L
B15: SD3088 (VHH)
VHH: B10 VHH with S49L, V79L, Q124L
B16: SD3011 (VHH)
VHH: B10 VHH with S49L
B17: SD3010 (VHH)
VHH: B10 VHH with S49L, V79L
B18: SD1087 (VHH)
VHH: EVQLVESGGGLVQPGGSLRLSCVISGLSLDTYAVGWFRQAPGKEREGITCISSGHGMTYYADSVKGRFTVSTDNAKNTVYLQMNGLQPEDTARYYCATESRYYCSDNWPAPQRYIYWGQGTQVTVSS
B19: SD3050 (VHH)
VHH: B9 VHH with V48I, S49T

Residue numbers refer to the chain shown, from its start. Bounds are passed on as bounds.

The test concerns the target hemagglutinin (HA) of influenza B/Brisbane/60/08 (Victoria) (influenza B virus). As to the kind of experiment: cell-based or functional assay.
With B1, the “VNA IC50” value is 174 nM.

For B2, the “VNA IC50” value worked out at 12 nM.

As to B3, the “VNA IC50” value was 12 nM.

As for B4, the “VNA IC50” value was determined as 40 nM.

Turning to B5, the “VNA IC50” value amounted to 5 nM.

Turning to B6, the “VNA IC50” value worked out at 5 nM.

For the molecule B7, the “VNA IC50” value was 101 nM.

Turning to B8, the “VNA IC50” value is 101 nM.

B9: the “VNA IC50” value was over 1000 nM.

For B10, the “VNA IC50” value was over 1000 nM.

Consider B11, for which the “VNA IC50” value came to 194 nM.

On to B12, for which the “VNA IC50” value is over 1000 nM.

As for B13, the “VNA IC50” value was 59 nM.

For the molecule B14, the “VNA IC50” value came out at 32 nM.

On to B15, for which the “VNA IC50” value is 101 nM.

In the case of B16, the “VNA IC50” value was 53 nM.

B17: the “VNA IC50” value was 149 nM.

As to B18, the “VNA IC50” value came to 34 nM.

On to B19, for which the “VNA IC50” value was over 1000 nM.

For the origin of these results see US20190359693A1 (Janssen / Centocor, published 2019).
